Assay in all cases: EMSA
For data set [1], the target named is T1, Pcf1 WT;Pcf2;Pcf3 (Schizosaccharomyces …, UniProt Q1MTN9;O13985;Q9Y825 1-544;1-512;1-408, ||).
T1 sequence 1: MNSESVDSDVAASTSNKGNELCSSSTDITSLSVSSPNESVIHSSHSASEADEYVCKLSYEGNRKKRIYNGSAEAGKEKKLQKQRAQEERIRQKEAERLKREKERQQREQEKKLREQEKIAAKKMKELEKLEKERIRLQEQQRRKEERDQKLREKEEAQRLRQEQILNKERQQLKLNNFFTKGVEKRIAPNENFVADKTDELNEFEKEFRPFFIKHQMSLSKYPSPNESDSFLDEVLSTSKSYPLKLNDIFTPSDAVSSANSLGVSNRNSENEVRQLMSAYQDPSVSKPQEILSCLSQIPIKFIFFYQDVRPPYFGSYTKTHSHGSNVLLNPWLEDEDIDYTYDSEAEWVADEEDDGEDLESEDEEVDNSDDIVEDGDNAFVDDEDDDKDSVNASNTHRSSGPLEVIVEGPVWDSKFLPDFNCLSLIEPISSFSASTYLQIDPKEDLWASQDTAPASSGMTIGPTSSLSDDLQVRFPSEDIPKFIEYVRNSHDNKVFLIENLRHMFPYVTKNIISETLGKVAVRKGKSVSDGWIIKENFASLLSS
T1 sequence 2: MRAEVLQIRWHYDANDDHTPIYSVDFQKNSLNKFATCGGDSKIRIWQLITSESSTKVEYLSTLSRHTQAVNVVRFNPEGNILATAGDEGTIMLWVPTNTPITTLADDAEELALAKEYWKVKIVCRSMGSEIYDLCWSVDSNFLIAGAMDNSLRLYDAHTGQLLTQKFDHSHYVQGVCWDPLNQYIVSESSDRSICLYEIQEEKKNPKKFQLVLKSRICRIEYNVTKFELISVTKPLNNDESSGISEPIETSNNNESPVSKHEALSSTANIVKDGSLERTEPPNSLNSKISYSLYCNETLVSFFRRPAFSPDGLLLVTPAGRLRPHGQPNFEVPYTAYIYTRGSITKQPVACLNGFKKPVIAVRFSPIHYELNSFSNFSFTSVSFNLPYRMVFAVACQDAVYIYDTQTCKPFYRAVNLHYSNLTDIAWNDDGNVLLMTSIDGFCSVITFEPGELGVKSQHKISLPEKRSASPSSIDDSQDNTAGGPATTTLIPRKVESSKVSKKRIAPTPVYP
T1 sequence 3: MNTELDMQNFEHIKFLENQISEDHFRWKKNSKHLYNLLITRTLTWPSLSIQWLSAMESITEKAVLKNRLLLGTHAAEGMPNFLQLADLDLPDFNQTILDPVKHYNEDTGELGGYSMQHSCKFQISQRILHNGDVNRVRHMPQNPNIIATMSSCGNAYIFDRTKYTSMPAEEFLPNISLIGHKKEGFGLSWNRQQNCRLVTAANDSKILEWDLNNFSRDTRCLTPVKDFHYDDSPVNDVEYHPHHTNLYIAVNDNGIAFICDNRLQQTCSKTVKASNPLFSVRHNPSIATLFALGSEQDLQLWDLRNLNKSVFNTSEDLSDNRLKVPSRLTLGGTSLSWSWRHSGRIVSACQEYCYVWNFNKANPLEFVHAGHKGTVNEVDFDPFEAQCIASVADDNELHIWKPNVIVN

Data set [2] concerns the target Pcf1-ΔWHD;Pcf2;Pcf3;SpPCNA (Schizosaccharomyces …, UniProt Q1MTN9;O13985;Q9Y825;Q03392 1-470;1-512;1-408;1-260, del471-544|||).
Data set [3] concerns the target Pcf1 WT;Pcf2;Pcf3;SpPCNA (Schizosaccharomyces …, UniProt Q1MTN9;O13985;Q9Y825;Q03392 1-544;1-512;1-408;1-260, |||).
The target of data set [4] is T2, Pcf1_WHD (Schizosaccharomyces pombe, UniProt Q1MTN9 471-544).
T2 sequence: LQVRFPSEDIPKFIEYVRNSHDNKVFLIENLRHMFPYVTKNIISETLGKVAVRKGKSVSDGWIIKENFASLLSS

Pcf1-ΔWHD;Pcf2;Pcf3;SpPCNA, sequence (Q03392 whole entry, stated change not applied, one chain of several): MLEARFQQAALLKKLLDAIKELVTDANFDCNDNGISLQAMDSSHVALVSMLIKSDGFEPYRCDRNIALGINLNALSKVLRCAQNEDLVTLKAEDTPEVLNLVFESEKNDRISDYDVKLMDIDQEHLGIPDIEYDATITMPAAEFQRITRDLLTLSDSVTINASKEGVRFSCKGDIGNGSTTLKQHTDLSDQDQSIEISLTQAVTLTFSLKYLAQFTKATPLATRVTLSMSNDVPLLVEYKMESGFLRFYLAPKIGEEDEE
Pcf1 WT;Pcf2;Pcf3;SpPCNA, sequence (Q03392 whole entry, one chain of several): as the sequence (Q03392 whole entry, stated change not applied, one chain of several) above

B1: 40 bp dsDNA (dsDNA)
DNA 1: ATCAATATCCACCTGCAGATACTACCAAAAGTGTATTTGG
DNA 2: CCAAATACACTTTTGGTAGTATCTGCAGGTGGATATTGAT
Consider B1, for which the “apparent K (half saturation)” value in data set [1] was determined as 3.4 ± 0.4 µM. For the same molecule, the binding result in data set [2] is “binds”; in data set [3], “binds”; in data set [4], “no binding”.

The values are drawn from article PMC10942606.
